Experimental data as given in patent US20200207869A1 (INSERM INSTITUT NATIONAL DE LA SANTE ET DE LA RECHERCHE …, published 2020).

Legend:
[1] = target: T1, mD1-D2-HPC4 fragment (murine, UniProt Q8CIZ8 23-762); test: ELISA, sdAb immobilized
T1 construct: range 23-762
Description: (§1) Wells were then washed three times with 75 μl/well using TBS-T. Residual peroxidase activity was detected by measuring peroxidase-mediated hydrolysis of 3,3′,5,5′-tetramethylbenzidine.
(§2) Negative binding (−) was defined as optical density (OD) being ≤0.5, moderate positive binding (+) was defined as OD being >0.5 and <1.0, strongly positive binding (++) was defined as OD being ≥1.0.

[2] = target: T2, purified recombinant murine VWF (murine, UniProt Q8CIZ8 764-2813); test: ELISA, sdAb immobilized
T2 construct: also called rmVWF
Description: as §1, §2

B1: sdAb KB-VWF-011 (VHH)
VHH: QVQLVQSGGGLVQAGDSLRLSCAASGGTFSNYAMGWFRQTPGKEREFVARISRSGHRTDYADSAKGRFTISRDNAKNTVYLQMNSLKPEDTAVYYCAARSDWSIATTATSYDYWGQGTQVTVSS
notes: Single-domain antibody against the VWF D'D3 domain; no tag stated
OD [1]: ≤ 0.5 od | OD [2]: ≤ 0.5 od

B2: sdAb KB-VWF-013 (VHH)
VHH: QVQLVQSGGGLVQAGDSLRLSCAASGRTFIRYAMAWFRQAPGKEREFVAAIPQSGGRSYYADSVKGRFTISRDNAKNTVYLQMNSLKPEDTAVYSCAATSTYYGRSAYSSHSGGYDYWGQGTQVTVSS
notes: as for B1
OD [1]: ≤ 0.5 od
